Measurements as given in US20260234247A1 (published 2026).

What was measured:
[1] = target: T1, Rhesus LILRB1 (F7H3G7) on CHOK1 cells (rhesus macaque); experiment: flow cytometry on CHOK1-rhesus LILRB1 (F7H3G7) cells
T1 construct: whole, on cells; also called CHOK1-Rhesus LILRB1 (F7H3G7)

[2] = target: T2, human LILRB1 expressed on CHOK1 cells (human, UniProt Q8NHL6 24-650); experiment: flow cytometry (FACS) binding to CHOK1-hLILRB1 cells
T2 construct: whole, on cells; also called CHOK1-hLILRB1; CHOK1-LILRB1
T2 sequence (Q8NHL6 24-650): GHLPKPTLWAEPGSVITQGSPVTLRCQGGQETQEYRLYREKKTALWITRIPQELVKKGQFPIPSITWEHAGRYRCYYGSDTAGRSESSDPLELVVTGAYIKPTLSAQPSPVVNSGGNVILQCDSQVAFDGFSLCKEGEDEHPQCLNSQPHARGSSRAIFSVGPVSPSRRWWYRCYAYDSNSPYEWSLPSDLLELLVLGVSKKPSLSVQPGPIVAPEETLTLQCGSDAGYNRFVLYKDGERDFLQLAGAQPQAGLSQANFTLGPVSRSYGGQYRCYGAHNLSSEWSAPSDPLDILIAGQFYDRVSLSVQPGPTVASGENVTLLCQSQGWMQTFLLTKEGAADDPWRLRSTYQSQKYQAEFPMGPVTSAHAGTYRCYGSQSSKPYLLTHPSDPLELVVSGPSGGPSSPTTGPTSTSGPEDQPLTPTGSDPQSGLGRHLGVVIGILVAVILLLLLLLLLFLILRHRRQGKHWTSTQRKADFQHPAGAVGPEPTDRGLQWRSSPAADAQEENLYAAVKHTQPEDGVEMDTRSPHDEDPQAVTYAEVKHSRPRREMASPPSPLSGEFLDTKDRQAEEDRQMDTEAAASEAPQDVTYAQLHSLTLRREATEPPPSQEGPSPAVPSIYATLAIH

[3] = target: T3, human LILRB2 expressed on CHOK1 cells (human, UniProt Q8N423 22-597); experiment: flow cytometry (FACS) binding to CHOK1-hLILRB2 cells
T3 construct: whole, on cells; also called CHOK1-hLILRB2; CHOK1-LILRB2
T3 sequence (Q8N423 22-597): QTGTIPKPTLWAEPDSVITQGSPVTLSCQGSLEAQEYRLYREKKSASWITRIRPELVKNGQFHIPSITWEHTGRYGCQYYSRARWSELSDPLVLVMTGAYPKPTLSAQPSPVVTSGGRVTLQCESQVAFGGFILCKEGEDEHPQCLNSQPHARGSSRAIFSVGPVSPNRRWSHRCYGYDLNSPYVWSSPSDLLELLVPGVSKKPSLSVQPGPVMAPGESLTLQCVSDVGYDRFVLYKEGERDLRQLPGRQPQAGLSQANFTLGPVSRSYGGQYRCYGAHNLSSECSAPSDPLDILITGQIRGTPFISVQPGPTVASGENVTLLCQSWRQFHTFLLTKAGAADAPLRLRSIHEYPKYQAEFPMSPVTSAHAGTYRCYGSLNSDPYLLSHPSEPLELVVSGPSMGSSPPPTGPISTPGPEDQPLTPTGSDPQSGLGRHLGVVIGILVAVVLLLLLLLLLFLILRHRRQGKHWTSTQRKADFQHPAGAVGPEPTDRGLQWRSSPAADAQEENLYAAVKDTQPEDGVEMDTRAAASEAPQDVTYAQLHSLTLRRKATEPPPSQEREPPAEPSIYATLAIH

[4] = target: T2, human LILRB1 expressed on CHOK1 cells; experiment: cell based RBA on CHOK1-hLILRB1 cells, flow cytometry; competitor HLA-G
[5] = target: T3, human LILRB2 expressed on CHOK1 cells; experiment: cell based RBA on CHOK1-hLILRB2 cells, flow cytometry; competitor HLA-G
[6] = target: T4, human LILRB1 (human, UniProt Q8NHL6 24-458, limits assumed); experiment: Octet off-rate ranking;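 further: antibody dissociation rate constants against cynomolgus LILRB2 plus human LILRB1, LILRB2, LILRA1 and LILRA2, measured on an Octet instrument to rank binding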
T4 construct: also called hLILRB1
T4 sequence (Q8NHL6 24-458 limits assumed): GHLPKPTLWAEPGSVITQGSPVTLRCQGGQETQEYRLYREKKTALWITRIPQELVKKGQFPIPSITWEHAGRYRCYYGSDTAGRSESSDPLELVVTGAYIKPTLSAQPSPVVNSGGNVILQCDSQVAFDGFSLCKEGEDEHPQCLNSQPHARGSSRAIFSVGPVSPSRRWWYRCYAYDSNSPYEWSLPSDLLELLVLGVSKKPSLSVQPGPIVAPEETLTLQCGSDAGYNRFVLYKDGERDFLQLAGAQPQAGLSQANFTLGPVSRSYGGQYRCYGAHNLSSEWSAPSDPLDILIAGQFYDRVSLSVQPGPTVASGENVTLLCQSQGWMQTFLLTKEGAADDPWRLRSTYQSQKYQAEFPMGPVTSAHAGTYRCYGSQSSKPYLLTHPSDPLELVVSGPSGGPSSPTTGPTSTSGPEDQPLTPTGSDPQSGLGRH
Text: Binding affinity of anti-LILRB1 and anti-LILRB2 antibodies against human LILRB1, LILRB2, LILRA1, LILRA2 and cynomolgus LILRB2 was ranked by measuring dissociation rate constant (Kdis) using the Octet system.

[7] = target: T5, Biotinylated LILRB1 (UniProt Q8NHL6 24-458, limits assumed, biotinylated (sites not given)); experiment: epitope binning ELISA, coated 1 ug/ml; competitor 15G8 at 20 ug/ml
T5 sequence (Q8NHL6 24-458 limits assumed): as above

[8] = target: T5, Biotinylated LILRB1; experiment: epitope binning ELISA, coated 1 ug/ml; competitor LK-RB1-9 at 20 ug/ml
Experimental: (§1) Binding epitope of a subset of anti-LILRB1 and anti-LILRB2 antibodies was analyzed by epitope binning ELISA. Briefly, a panel of testing antibodies were coated onto ELISA plate. 50 ul/well Biotinylated LILRB1 or LILRB2 and 50 ul/well of competing antibodies were added to the coated plate and incubated at 37° C. for 1 hour. After Streptavidin-HRP (1:5000) incubation and TMB development, the plates were read at 450 nm using Molecular device spectra max plus384.

[9] = target: T5, Biotinylated LILRB1; experiment: epitope binning ELISA, coated 1 ug/ml; competitor LK-RB1-12 at 20 ug/ml
Experimental: as §1

[10] = target: T5, Biotinylated LILRB1; experiment: epitope binning ELISA, coated 1 ug/ml; competitor LK-RB1-16 at 20 ug/ml
Experimental: as §1

[11] = target: T5, Biotinylated LILRB1; experiment: epitope binning ELISA, coated 1 ug/ml; competitor LK-RB1-31 at 20 ug/ml
Experimental: as §1

[12] = target: T5, Biotinylated LILRB1; experiment: epitope binning ELISA, coated 1 ug/ml; competitor LK-RB1-33 at 20 ug/ml
Experimental: as §1

[13] = target: T5, Biotinylated LILRB1; experiment: epitope binning ELISA, coated 1 ug/ml; competitor LK-RB1-47 at 20 ug/ml
Experimental: as §1

[14] = target: T5, Biotinylated LILRB1; experiment: epitope binning ELISA, coated 1 ug/ml; competitor hz73D1.v1 at 20 ug/ml
Experimental: as §1

EC50 [1]	koff [6]	Inhibition % [7]	Inhibition % [8]	Inhibition % [9]	Inhibition % [10]	Inhibition % [11]	Inhibition % [12]	Inhibition % [13]	Inhibition % [14]	Binder	other results
0.00078 µM										LK-RB1-11 (antibody, human IgG4 S228P, kappa, V domains shown, Anti-LILRB1 antibody) VH: QVTLKESGPGILQPSQTLSLTCSFSGFSLKTSGMSVGWIRQPSGKGLEWLAHIWWNDDKYYNPVLKGRLTISKDTSNNLVFLKIASVVSTDTATYYCVRYGNSHGYWYFDVWGTGTTVTVSS VL: NIVLTQSPASLAVSLGQRATISCRASESVDSYGNNFIHWYQQKPGQPPKVLIYYASNLEAGVPARFSGSGSRTDFTLTIDPVEAEDAATYYCQQNNEDPYTFGGGTKLEIER	
0.00125 µM										hz73D1.v1 (antibody, human IgG4 S228P, kappa, V domains shown) VH: QVQLVQSGAEVKKPGASVKVSCKASGYTFTDYYINWVRQAPGQGLEWMGNVNPNDGGTTYNQKFKGRVTMTTDTSTSTAYMELRSLRSDDTAVYYCARREIYFYGTIYYYAMDYWGQGTLVTVSS VL: DIQLTQSPSFLSASVGDRVTITCRASESVDYYGNSFMYWYQQKPGKAPKLLIYFASNLESGVPSRFSGSGSGTEFTLTISSLQPEDFATYYCQQNNEDPWTFGGGTKVEIKR [hz73D1.v1, listing 1 of 2 here]	
										hz73D1.v1 (antibody, human IgG4 S228P, kappa, V domains shown) VH: QVQLVQSGAEVKKPGASVKVSCKASGYTFTDYYINWVRQAPGQGLEWMGNVNPNDGGTTYNQKFKGRVTMTTDTSTSTAYMELRSLRSDDTAVYYCARREIYFYGTIYYYAMDYWGQGTLVTVSS VL: DIQLTQSPSFLSASVGDRVTITCRASESVDYYGNSFMYWYQQKPGKAPKLLIYFASNLESGVPSRFSGSGSGTEFTLTISSLQPEDFATYYCQQNNEDPWTFGGGTKVEIKR [hz73D1.v1, listing 2 of 2 here]	EC50 [2]: 0.00537 µM; EC50 [3]: 0.0014 µM; EC50 [4]: 7.26 µg/mL; EC50 [5]: 1.46 µg/mL
	0.00126 s⁻¹	-9.78%	84.5%	90.3%	88%	83%	75.3%	83.2%	77.3%	LK-RB1-12 (antibody, human IgG4 S228P, kappa, V domains shown) VH: QVQLQQSGTELVRPGSSVMISCKASGYAFSTYWMDWVKQRPGQGLEWIGQIYPGDGATNYNGKFKGKATLTADKSSITAYMHLSSLTSEDSAVYFCLRSRDYDGWFFDVWGAGTTVTVSS VL: DIVMTQSHKFMSTSIGDRVSITCKASQDVSSAVAWYQQKPGQSPKLLIYWASTRHTGVPDRFTGSGSGTDYTLTFSSVQAEDLALYYCQQHYSTPWTFGGGTKLEIKR	
	0.000155 s⁻¹	72.2%	94.8%	68.8%	3.49%	4.35%	96%	96.5%	88.7%	LK-RB1-33 (antibody, human IgG4 S228P, kappa, V domains shown) VH: QIQLVQSGPELKKPGDTVKISCKASGYTFTSYGMNWVKQAPGEGLKWMGWINTYSGVPTYGDDFKGRFAFSLETSASTAYLQINNLENEDTATYFCARRGRDSVVGHFDVWGTGTTVTVSS VL: DIVMTQSHKFMSTSVGDRVSITCKASQDVNTAVAWYQQKPGQSPKLLIYWASTRHTGVPDRFTGSGSGTDFTLTISSVQAEDLALYYCQQHYTIPFTFGSGTRLEIKR	
	5.92e-05 s⁻¹	0.37%	0.98%	12.5%	42.9%	3.39%	-0.04%	2.23%	1.48%	LK-RB1-16 (antibody, human IgG4 S228P, kappa, V domains shown) VH: QVQLKESGPGLVAPSQSLSITCTVSGFSLISNAISWVRQPPGKGLEWLGVIWGDGNTIYHSALRSRLTISKDNSKSQVFLKLNSLQIDDTATYYCAKANWDGYYFDYWGQGTTLTVSS VL: DIQMNQSPSSLSASLGDTITITCHASQSVDFWLNWYQQKPGNIPKLLISKASNLHTGVPSRFSGSGSGTTFTLTISSLQPEDIATYYCQQGQSYPLTFGSGTKLEIKR	
	6.77e-05 s⁻¹	-1.73%	10.5%	87.4%	75.7%	64.4%	1.14%	5.86%	54.1%	LK-RB1-31 (antibody, human IgG4 S228P, kappa, V domains shown) VH: QVQLKESGPGLVAPSQSLSITCTVSGFSLTSYGVSWVRQPPGKGLEWLGIIWGDGSTNYHSALKSRLSISKDNSKSQVFLKLNSLQTEDTATYYCAKPNWDYYAMDYWGQGTSVTVSS VL: DIQMTQTTSSLSASLGDRVTISCRASQDISNYLNWYLQKPDGTVKLLIYYTSRLHSGVPSRFSGSGSGTDYSLTISNLEQEDIATYFCQQGITLPCTFGGGTKLEIKR	
	0.000828 s⁻¹	5.8%	31.8%	82.1%	1.24%	0.59%	21.7%	89.8%	74.8%	LK-RB1-47 (antibody, human IgG4 S228P, kappa, V domains shown) VH: QIQLVQSGPELKKPGETVKISCKASGYTFTTYGMSWVKQAPGKGLKWMGWINTYSGVPTYTDDFKGRFAFSVETSASTAYLQINNLKNEDTATYFCARRERDFYGNIFFPYWGQGSLVTVSA VL: DIQMTQTTSSLSASLGDRVTISCRASQDISNYLNWYQQKPDGTVKLLIYYTSRIHSGVPSRFSGSGSGTDFSLTISNLDQEDIATYFCQQGHTLPWTFGGGTKVEIKR	
19.9 µM										LK-RB1-50 (antibody, human IgG4 S228P, kappa, V domains shown, Anti-LILRB1 antibody) VH: QVQLKQSGPGLVQPSQSLSITCTVSGFSLTSYGVHWVRQSPGKGLEWLGVIWRGGNTDYNAPFVSRLSITKDNSQSQVFFKMNSLEADDTAIYYCAKNSLDVYSSWYFDVWGTGTTVTVSS VL: QIVLSQSPAILSAFPGEKVTMTCRASSSVSFMHWYQQKPGSSPKPWIYATSNLASGVPARFSGSGSGTSYSLTISRVEAEDAATYYCQQWSSNPLTFGAGTKLELKR	
17.9 µM										LK-RB1-58 (antibody, human IgG4 S228P, kappa, V domains shown, Anti-LILRB1 antibody) VH: QVQLKQSGPGLVQPSQSLSITCTVSGFSLTTYGVHWVRQSPGKGLEWLGVIWRGGSTDYNAAFMSRLSITKDNSKSQVFFRMNSLQADDTARYYCAKNSLYYGSSWYFDVWGTGTTVTVSS VL: QIVLSQSPAILSASPGEKVTMTCRASSSVSFMHWYQQKPGSSPKPWIYATSNLASGVPARFSGSGSGTSYSLTISRVEAEDAATYYCQQWSSNPPTFGGGTKLEIKR	
26.6 µM										LK-RB1-51 (antibody, human IgG4 S228P, kappa, V domains shown, Anti-LILRB1 antibody) VH: QVQIQQSGAELVKPGASVKLSCKASGYTFTEFPIHWIKQRSGQGLEWIGWFYPGSDNMNYNEKFKDKATLTADKSSSTVYMELSRLTSEDSAVYFCARHENAYFYAMDYWGQGTSVTVSS VL: ENVLTQSPAIMSASLGEKVTMSCRASSSVNYMYWYQQKSDASPKIWIYYTSNLAPGVPARFSGSGSGNSYSLTISSMEGEDAATYYCQQFTSSPFTFGTGTKLEIKR	
24.2 µM										LK-RB1-54 (antibody, human IgG4 S228P, kappa, V domains shown, Anti-LILRB1 antibody) VH: DVQLQESGPGLVKPSQSLSLTCSVTGYSITSGFYWNWIRQFPGNKLEWMGHISYDGTNNYNPSLKNRISITRDTSKNLFFLKLNSVTTEDTATFHCARGGYGGSYGFDYWGQGTTLTVSS VL: ENVLTQSPAIMSASLGEKVTMSCRASSSVNYMYWYQQKSDASPKLWIYYTSNLAPGVPVRFSGSGSGNSYSLTISSMEGEDAATYYCQQFTSSPWTFGGGTKLEIKR	
